Assay results published in patent publication US8859223.

Tests used:
[1] = target: T1, APSL-DAHF
T1 chain: APSLDAHF

[2] = target: T2, DETL-DAHF
T2 chain: DETLDAHF

[3] = target: T3, EVNF-EVEF
T3 chain: EVNFEVEF

[4] = target: T4, ASNL-DAHF
T4 chain: ASNLDAHF

[5] = target: T5, EVNL-DAHF
T5 chain: EVNLDAHF

[6] = target: T6, EVNL-DAEF
T6 chain: EVNLDAEF

[7] = target: T7, EI(Thi)(Thi)-(Nva)AHF
T7 chain: EIXXXAHF

[8] = target: T8, EIDL-MVLD
T8 chain: EIDLMVLD

[9] = target: T9, EVNL-SSHD
T9 chain: EVNLSSHD

[10] = target: T10, EIDL-SSHD
T10 chain: EIDLSSHD

B1: BACE enzyme (beta-secretase) (protein)
chain: ETDEEPEEPGRRGSFVEMVDNLRGKSGQGYYVEMTVGSPPQTLNILVDTGSSNFAVGAAPHPFLHRYYQRQLSSTYRDLRKGVYVPYTQGKWEGELGTDLVSIPHGPNVTVRANIAAITESDKFFINGSNWEGILGLAYAEIARPDDSLEPFFDSLVKQTHVPNLFSLQLCGAGFPLNQSEVLASVGGSMIIGGIDHSLYTGSLWYTPIRREWYYEVIIVRVEINGQDLKMDCKEYNYDKSIVDSGTTNLRLPKKVFEAAVKSIKAASSTEKFPDGFWLGEQLVCWQAGTTPWNIFPVISLYLMGEVTNQSFRITILPQQYLRPVEDVATSQDDCYKFAISQSSTGTVMGAVIMEGFYVVFDRARKRIGFAVSACHVHDEFRTAAVEGPFVTLDMEDCGYNIPQTDESTLMTIAY
[1]
  Percent Cleavage after 10 hr Incubation with BACE: 0.5%
[2]
  Percent Cleavage after 10 hr Incubation with BACE: 1%
[3]
  Percent Cleavage after 10 hr Incubation with BACE: 85%
[4]
  Percent Cleavage after 10 hr Incubation with BACE: Not Detected
[5]
  Percent Cleavage after 10 hr Incubation with BACE: 50%
[6]
  Percent Cleavage after 10 hr Incubation with BACE: 50%
[7]
  Percent Cleavage after 10 hr Incubation with BACE: 25%
[8]
  Percent Cleavage after 10 hr Incubation with BACE: 20%
[9]
  Percent Cleavage after 10 hr Incubation with BACE: 3.5%
[10]
  Percent Cleavage after 10 hr Incubation with BACE: 5%
